Reference: patent US20210309732A1 (ELIXIRON IMMUNOTHERAPEUTICS HONG KONG, published 2021)

Biological target: T1, recombinant human GM-CSF (human, UniProt P04141 18-144)
T1 construct: also called rhGM-CSF; CSF2
Experiment: ELISA on coated rhGM-CSF, UBA relative to 1D2
From the text: Some of the residues in the CDRs are essential for epitope binding affinity and/or specificity. A number of computational methods were developed to detect these functional residues, generally known as ‘specificity-determining resides’ (SDRs). […] Based on the analysis, 7 amino acid residues in VH and 3 amino acid residues in VL were selected as the SDRs. The residues are labeled X₁ to X₁₀ for the ease of reference. The SDRs on VH are: Heavy chain D31 (HD31) (X₁), HK32 (X₂), HK54(X₃), HR100 (X₄), HY102 (X₅), HY103 (X₆) and HQ105 (X₇). The SDRs on VL are Light chain V32 (LV32) (X₈), LP94 (X₉) and LV95 (X₁₀). The SDRs were subsequently mutated by site-directed mutagenesis to other amino acids to generate mutant VH or VL clones. HEK293 cells were co-transfected with a vector encoding a mutant VH paired with a vector encoding a wild type VL or a vector encoding a wild type VH paired with a vector encoding a mutant VL. The antibody clones were harvested from the culture medium. The binding affinity of each antibody clone to human GM-CSF was tested by ELISA. The ELISA was done according to the following procedures. ELISA plate was coated with 50 μl of rhGM-CSF at 1 μg/mL. The plate was washed with 200 μl PBST for three times, followed by blocking with 1% BSA for 1 hour at room temperature. The antibody clones to be tested were diluted at 1:12000. 100 μl of the diluted antibodies were added to the cell at 100 μl/well. The plate was incubated at room temperature for 1 hour. The plate was then washed and incubated with 1:5000 diluted goat-anti-human secondary antibody conjugated with HRP at room temperature for one hour. The ELISA assay was developed with 100 μl developing buffer containing H₂O₂-Amplx Red per well in the dark for 5 min and the fluorescence intensity was read at Ex.530/Em.590 nm, with cutoff at 570 nm. The Unit Binding Activity (UBA) of each sample was calculated as the fluorescence signal/antibody clone dilution factor.

T1 sequence (P04141 18-144 limits assumed): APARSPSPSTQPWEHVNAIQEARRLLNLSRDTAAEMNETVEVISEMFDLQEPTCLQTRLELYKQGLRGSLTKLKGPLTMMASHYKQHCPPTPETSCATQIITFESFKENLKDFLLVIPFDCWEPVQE

Binder | binding affinity % of 1D2 [%]
1D2 SDR mutant HK54M (antibody, IgG1, V domains shown, also called X3 M) VH: QVQLVQSGAEVKKPGASVKVSCEASGYTFTDKYLHWVRQAPGQGLEWMAWINPMSGGTFYAQNFKGRVTVTRDTSINTAYLELTSLRLDDTSTYYCARGRDYYDQGAADLWGQGTMVTVSS VL: DIQLTQSPSSLSASVGDRVTITCRASQGINSVLAWYQQKPGKAPKLLLYAASKLESGVPSRFSGSGSGTDYTLTISSLQPEDFGTYYCQQYYSPVRTFGQGTKVEIKR | 106
1D2 SDR mutant HK54T (antibody, IgG1, V domains shown, also called X3 T) VH: QVQLVQSGAEVKKPGASVKVSCEASGYTFTDKYLHWVRQAPGQGLEWMAWINPTSGGTFYAQNFKGRVTVTRDTSINTAYLELTSLRLDDTSTYYCARGRDYYDQGAADLWGQGTMVTVSS VL: DIQLTQSPSSLSASVGDRVTITCRASQGINSVLAWYQQKPGKAPKLLLYAASKLESGVPSRFSGSGSGTDYTLTISSLQPEDFGTYYCQQYYSPVRTFGQGTKVEIKR | 101
1D2 SDR mutant HQ105S (antibody, IgG1, V domains shown, also called X7 S) VH: QVQLVQSGAEVKKPGASVKVSCEASGYTFTDKYLHWVRQAPGQGLEWMAWINPKSGGTFYAQNFKGRVTVTRDTSINTAYLELTSLRLDDTSTYYCARGRDYYDSGAADLWGQGTMVTVSS VL: DIQLTQSPSSLSASVGDRVTITCRASQGINSVLAWYQQKPGKAPKLLLYAASKLESGVPSRFSGSGSGTDYTLTISSLQPEDFGTYYCQQYYSPVRTFGQGTKVEIKR | 134
1D2 SDR mutant HQ105T (antibody, IgG1, V domains shown, also called X7 T) VH: QVQLVQSGAEVKKPGASVKVSCEASGYTFTDKYLHWVRQAPGQGLEWMAWINPKSGGTFYAQNFKGRVTVTRDTSINTAYLELTSLRLDDTSTYYCARGRDYYDTGAADLWGQGTMVTVSS VL: DIQLTQSPSSLSASVGDRVTITCRASQGINSVLAWYQQKPGKAPKLLLYAASKLESGVPSRFSGSGSGTDYTLTISSLQPEDFGTYYCQQYYSPVRTFGQGTKVEIKR | 133
1D2 SDR mutant HK54R (antibody, IgG1, V domains shown, also called X3 R) VH: QVQLVQSGAEVKKPGASVKVSCEASGYTFTDKYLHWVRQAPGQGLEWMAWINPRSGGTFYAQNFKGRVTVTRDTSINTAYLELTSLRLDDTSTYYCARGRDYYDQGAADLWGQGTMVTVSS VL: DIQLTQSPSSLSASVGDRVTITCRASQGINSVLAWYQQKPGKAPKLLLYAASKLESGVPSRFSGSGSGTDYTLTISSLQPEDFGTYYCQQYYSPVRTFGQGTKVEIKR | 98
1D2 SDR mutant HK54V (antibody, IgG1, V domains shown, also called X3 V) VH: QVQLVQSGAEVKKPGASVKVSCEASGYTFTDKYLHWVRQAPGQGLEWMAWINPVSGGTFYAQNFKGRVTVTRDTSINTAYLELTSLRLDDTSTYYCARGRDYYDQGAADLWGQGTMVTVSS VL: DIQLTQSPSSLSASVGDRVTITCRASQGINSVLAWYQQKPGKAPKLLLYAASKLESGVPSRFSGSGSGTDYTLTISSLQPEDFGTYYCQQYYSPVRTFGQGTKVEIKR | 74
1D2 SDR mutant HR100A (antibody, IgG1, V domains shown, also called X4 A) VH: QVQLVQSGAEVKKPGASVKVSCEASGYTFTDKYLHWVRQAPGQGLEWMAWINPKSGGTFYAQNFKGRVTVTRDTSINTAYLELTSLRLDDTSTYYCARGADYYDQGAADLWGQGTMVTVSS VL: DIQLTQSPSSLSASVGDRVTITCRASQGINSVLAWYQQKPGKAPKLLLYAASKLESGVPSRFSGSGSGTDYTLTISSLQPEDFGTYYCQQYYSPVRTFGQGTKVEIKR | 76
1D2 SDR mutant HQ105W (antibody, IgG1, V domains shown, also called X7 W) VH: QVQLVQSGAEVKKPGASVKVSCEASGYTFTDKYLHWVRQAPGQGLEWMAWINPKSGGTFYAQNFKGRVTVTRDTSINTAYLELTSLRLDDTSTYYCARGRDYYDWGAADLWGQGTMVTVSS VL: DIQLTQSPSSLSASVGDRVTITCRASQGINSVLAWYQQKPGKAPKLLLYAASKLESGVPSRFSGSGSGTDYTLTISSLQPEDFGTYYCQQYYSPVRTFGQGTKVEIKR | 68
1D2 SDR mutant HQ105V (antibody, IgG1, V domains shown, also called X7 V) VH: QVQLVQSGAEVKKPGASVKVSCEASGYTFTDKYLHWVRQAPGQGLEWMAWINPKSGGTFYAQNFKGRVTVTRDTSINTAYLELTSLRLDDTSTYYCARGRDYYDVGAADLWGQGTMVTVSS VL: DIQLTQSPSSLSASVGDRVTITCRASQGINSVLAWYQQKPGKAPKLLLYAASKLESGVPSRFSGSGSGTDYTLTISSLQPEDFGTYYCQQYYSPVRTFGQGTKVEIKR | 155
1D2 SDR mutant HQ105E (antibody, IgG1, V domains shown, also called X7 E) VH: QVQLVQSGAEVKKPGASVKVSCEASGYTFTDKYLHWVRQAPGQGLEWMAWINPKSGGTFYAQNFKGRVTVTRDTSINTAYLELTSLRLDDTSTYYCARGRDYYDEGAADLWGQGTMVTVSS VL: DIQLTQSPSSLSASVGDRVTITCRASQGINSVLAWYQQKPGKAPKLLLYAASKLESGVPSRFSGSGSGTDYTLTISSLQPEDFGTYYCQQYYSPVRTFGQGTKVEIKR | 173
1D2 SDR mutant HK54N (antibody, IgG1, V domains shown, also called X3 N) VH: QVQLVQSGAEVKKPGASVKVSCEASGYTFTDKYLHWVRQAPGQGLEWMAWINPNSGGTFYAQNFKGRVTVTRDTSINTAYLELTSLRLDDTSTYYCARGRDYYDQGAADLWGQGTMVTVSS VL: DIQLTQSPSSLSASVGDRVTITCRASQGINSVLAWYQQKPGKAPKLLLYAASKLESGVPSRFSGSGSGTDYTLTISSLQPEDFGTYYCQQYYSPVRTFGQGTKVEIKR | 73
1D2 SDR mutant HK54S (antibody, IgG1, V domains shown, also called X3 S) VH: QVQLVQSGAEVKKPGASVKVSCEASGYTFTDKYLHWVRQAPGQGLEWMAWINPSSGGTFYAQNFKGRVTVTRDTSINTAYLELTSLRLDDTSTYYCARGRDYYDQGAADLWGQGTMVTVSS VL: DIQLTQSPSSLSASVGDRVTITCRASQGINSVLAWYQQKPGKAPKLLLYAASKLESGVPSRFSGSGSGTDYTLTISSLQPEDFGTYYCQQYYSPVRTFGQGTKVEIKR | 82
1D2 SDR mutant HQ105M (antibody, IgG1, V domains shown, also called X7 M) VH: QVQLVQSGAEVKKPGASVKVSCEASGYTFTDKYLHWVRQAPGQGLEWMAWINPKSGGTFYAQNFKGRVTVTRDTSINTAYLELTSLRLDDTSTYYCARGRDYYDMGAADLWGQGTMVTVSS VL: DIQLTQSPSSLSASVGDRVTITCRASQGINSVLAWYQQKPGKAPKLLLYAASKLESGVPSRFSGSGSGTDYTLTISSLQPEDFGTYYCQQYYSPVRTFGQGTKVEIKR | 148
1D2 SDR mutant HK54P (antibody, IgG1, V domains shown, also called X3 P) VH: QVQLVQSGAEVKKPGASVKVSCEASGYTFTDKYLHWVRQAPGQGLEWMAWINPPSGGTFYAQNFKGRVTVTRDTSINTAYLELTSLRLDDTSTYYCARGRDYYDQGAADLWGQGTMVTVSS VL: DIQLTQSPSSLSASVGDRVTITCRASQGINSVLAWYQQKPGKAPKLLLYAASKLESGVPSRFSGSGSGTDYTLTISSLQPEDFGTYYCQQYYSPVRTFGQGTKVEIKR | 85
1D2 SDR mutant HK54Q (antibody, IgG1, V domains shown, also called X3 Q) VH: QVQLVQSGAEVKKPGASVKVSCEASGYTFTDKYLHWVRQAPGQGLEWMAWINPQSGGTFYAQNFKGRVTVTRDTSINTAYLELTSLRLDDTSTYYCARGRDYYDQGAADLWGQGTMVTVSS VL: DIQLTQSPSSLSASVGDRVTITCRASQGINSVLAWYQQKPGKAPKLLLYAASKLESGVPSRFSGSGSGTDYTLTISSLQPEDFGTYYCQQYYSPVRTFGQGTKVEIKR | 93
1D2 SDR mutant HQ105L (antibody, IgG1, V domains shown, also called X7 L) VH: QVQLVQSGAEVKKPGASVKVSCEASGYTFTDKYLHWVRQAPGQGLEWMAWINPKSGGTFYAQNFKGRVTVTRDTSINTAYLELTSLRLDDTSTYYCARGRDYYDLGAADLWGQGTMVTVSS VL: DIQLTQSPSSLSASVGDRVTITCRASQGINSVLAWYQQKPGKAPKLLLYAASKLESGVPSRFSGSGSGTDYTLTISSLQPEDFGTYYCQQYYSPVRTFGQGTKVEIKR | 63
1D2 SDR mutant HQ105G (antibody, IgG1, V domains shown, also called X7 G) VH: QVQLVQSGAEVKKPGASVKVSCEASGYTFTDKYLHWVRQAPGQGLEWMAWINPKSGGTFYAQNFKGRVTVTRDTSINTAYLELTSLRLDDTSTYYCARGRDYYDGGAADLWGQGTMVTVSS VL: DIQLTQSPSSLSASVGDRVTITCRASQGINSVLAWYQQKPGKAPKLLLYAASKLESGVPSRFSGSGSGTDYTLTISSLQPEDFGTYYCQQYYSPVRTFGQGTKVEIKR | 105
1D2 SDR mutant HK54W (antibody, IgG1, V domains shown, also called X3 W) VH: QVQLVQSGAEVKKPGASVKVSCEASGYTFTDKYLHWVRQAPGQGLEWMAWINPWSGGTFYAQNFKGRVTVTRDTSINTAYLELTSLRLDDTSTYYCARGRDYYDQGAADLWGQGTMVTVSS VL: DIQLTQSPSSLSASVGDRVTITCRASQGINSVLAWYQQKPGKAPKLLLYAASKLESGVPSRFSGSGSGTDYTLTISSLQPEDFGTYYCQQYYSPVRTFGQGTKVEIKR | 88
